The source of these data is patent US20060015973, “Environmental stress-tolerant plants” (Independent Admin. Institute, Japan International Research …, published 2006).

Bounds are passed on as bounds.

Data set [1] deals with T1, GST-DREB2A (fragment encoded by cDNA nt 167-666) (Arabidopsis thaliana, UniProt O82132 SEQ:1-166). The data set can be described thus: EMSA; room temperature 20 min; 6% gel 0.25x TBE. To be noted: tags: N-terminal GST (pGEX-4T-1), E. coli JM109; label: 32P. The procedure: (§1) E. coli in which the fusion protein had been induced was suspended in 13 ml of buffer (10 mM Tris-HCl, 0.1 mM DTT, 0.1 mM phenylmethylsulfonyl fluoride). Then, 1% Triton X-100 and 1 mM EDTA were added thereto. After the cells were disrupted by sonication, the disrupted material was centrifuged at 22,000×g for 20 min. Then, the fusion protein of DREB1A (or DREB2A) and GST was purified by affinity chromatography using glutathione-Sepharose (Pharmacia) as a carrier. The resultant fusion protein was incubated with the DRE-containing 71 bp DNA fragment probe prepared by PCR and radiolabelled with ³²P at room temperature for 20 min. This mixture was electrophoresed using 6% acryl amide gel containing 0.25× Tris-borate-EDTA at 100 V for 2 hr. […] As is clear from this Figure, a band which migrated behind was detected when the fusion protein was incubated with the DRE-containing 71 bp DNA fragment probe (SEQ ID NO: 18). When a DNA fragment containing a varied DRE sequence (SEQ ID NO: 19, 20 or 21) was used, such a band was not detected. On the other hand, when a DNA fragment which was partly varied outside of DRE sequence (SEQ ID NO: 22 or 23) was used as a probe, a behind band was detected. Thus, it was shown that DREB1A or DREB2A protein specifically bound to DRE sequence.
For orientation: Mobility shift assays separate free from complexed probe on a gel.

Data set [2] deals with T2, GST-DREB1A (fragment encoded by cDNA nt 119-547) (Arabidopsis thaliana, UniProt Q9M0L0 SEQ:1-143). The data set can be described thus: EMSA; room temperature 20 min; 6% gel 0.25x TBE. To be noted: tags: N-terminal GST (pGEX-4T-1), E. coli JM109; label: 32P. The protocol:
as §1

Data set [3] addresses T1, GST-DREB2A (fragment encoded by cDNA nt …). The data set can be described thus: EMSA; no shifted band. To be noted: tags: N-terminal GST (pGEX-4T-1), E. coli JM109; label: 32P. The procedure: as §1
Data set [4] addresses T2, GST-DREB1A (fragment encoded by cDNA nt …). The data set can be described thus: EMSA; no shifted band. To be noted: tags: N-terminal GST (pGEX-4T-1), E. coli JM109; label: 32P. The protocol: as §1
The target of data set [5] is T1, GST-DREB2A (fragment encoded by cDNA nt …). The data set can be described thus: EMSA; shifted band. To be noted: tags: N-terminal GST (pGEX-4T-1), E. coli JM109; label: 32P. The procedure:
as §1

Data set [6] addresses T2, GST-DREB1A (fragment encoded by cDNA nt …). The data set can be described thus: EMSA; shifted band. To be noted: tags: N-terminal GST (pGEX-4T-1), E. coli JM109; label: 32P. The protocol:
as §1

Data set [7] concerns the target DREB2A delta136-165 (constitutive active form) (Arabidopsis thaliana, UniProt O82132 SEQ:1-335, del136-165). The data set can be described thus: cell_activity; GUS transactivation vs basal, T87 protoplasts; >3x full length. The protocol:
Isolation of Arabidopsis T87 cell protoplasts and polyethylene glycol-mediated DNA transfection were performed as described previously (Abel and Theologis, 1994 Plant J. 5, 421-427). Five-day-old Arabidopsis T87 suspension cultured cells were collected by filtration and washed with water. Five grams of T87 cells were incubated with enzyme solution (0.4M mannitol, 5 mM MES-KOH (pH 5.7), 8 mM CaCl₂, 1% [w/v] Cellulase ONOZUKA R10 (Yakult), 0.5% [w/v] Macerozyme R10 (Yakult)) at room temperature for 2 hours with gentle agitation. Cells were passed through 125 μm nylon mesh, recovered by centrifugation at 450 g for 5 minutes at room temperature and washed twice in 30 ml of […], 70 mM CaCl₂, and 5 mM MES-KOH (pH 5.7). Finally protoplasts were resuspended in MaMg solution (0.4 M mannitol, 15 mM MgCl₂, 5 mM MES-KOH (pH 5.7)) and concentration was adjusted to 3×10⁶ cell/ml. The isolated protoplasts were kept on ice until use. Plasmid DNAs used for protoplast transformation were prepared by using a QINGEN plasmid isolation kit (QIAGEN) and dissolved in 10 mM Tris-HCl (pH 8.0), and 1 mM EDTA at 1 μg/μL. One hundred μL of protoplast suspension was mixed well with 10 μL of effector plasmid, 10 μL of reporter plasmid and 5 μL of 35S:Luciferase internal control plasmid. […]

T1 sequence (O82132 1-166): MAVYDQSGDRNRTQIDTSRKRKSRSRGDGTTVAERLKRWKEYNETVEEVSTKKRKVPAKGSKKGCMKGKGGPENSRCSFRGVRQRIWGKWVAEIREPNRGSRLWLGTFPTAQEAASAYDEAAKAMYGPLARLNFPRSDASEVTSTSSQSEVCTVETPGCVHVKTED
T2 sequence (Q9M0L0 1-143): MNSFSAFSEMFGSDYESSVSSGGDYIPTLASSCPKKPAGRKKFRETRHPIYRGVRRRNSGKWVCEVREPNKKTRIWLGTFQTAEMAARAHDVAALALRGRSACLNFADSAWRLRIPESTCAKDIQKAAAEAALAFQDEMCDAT
Chain of DREB2A delta136-165 (constitutive active form) (O82132 other isoform, or with tags, fused parts or gaps del136-165 | mutant): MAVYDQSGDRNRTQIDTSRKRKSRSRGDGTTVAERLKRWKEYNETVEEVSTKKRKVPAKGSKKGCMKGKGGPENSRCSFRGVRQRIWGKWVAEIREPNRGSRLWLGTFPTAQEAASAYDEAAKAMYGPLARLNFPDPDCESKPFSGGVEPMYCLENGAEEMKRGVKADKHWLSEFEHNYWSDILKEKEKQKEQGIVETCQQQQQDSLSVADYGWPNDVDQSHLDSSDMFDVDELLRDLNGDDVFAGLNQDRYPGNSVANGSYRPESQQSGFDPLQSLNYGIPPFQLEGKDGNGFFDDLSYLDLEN

B1: rd29A promoter 71 bp DRE probe (wild type) (dsDNA)
DNA 1: CAGTTTGAAAGAAAAGGGAAAAAAAGAAAAAATAAATAAAAGATATACTACCGACATGAGTTCCAAAAAGC
DNA 2: GCTTTTTGGAACTCATGTCGGTAGTATATCTTTTATTTATTTTTTCTTTTTTTCCCTTTTCTTTCAAACTG
With B1, the binding result in data set [1] and in data set [2] was “binds” each time.

B2: 71 bp probe, DRE mutant (SEQ 19) (dsDNA)
DNA 1: CAGTTTGAAAGAAAAGGGAAAAAAAGAAAAAATAAATAAAAGATATATTTTCGACATGAGTTCCAAAAAGC
DNA 2: GCTTTTTGGAACTCATGTCGAAAATATATCTTTTATTTATTTTTTCTTTTTTTCCCTTTTCTTTCAAACTG
B2: the binding result in data set [3] and in data set [4] was “no binding” throughout.

B3: 71 bp probe, DRE mutant (SEQ 20) (dsDNA)
DNA 1: CAGTTTGAAAGAAAAGGGAAAAAAAGAAAAAATAAATAAAAGATATACTACTTTTATGAGTTCCAAAAAGC
DNA 2: GCTTTTTGGAACTCATAAAAGTAGTATATCTTTTATTTATTTTTTCTTTTTTTCCCTTTTCTTTCAAACTG
B3: the binding result in data set [3] and in data set [4] was “no binding” in each case.

B4: 71 bp probe, mutated outside DRE (SEQ 23) (dsDNA)
DNA 1: CAGTTTGAAAGAAAAGGGAAAAAAAGAAAAAATAAATAAAAGATATACTACCGACATGAGTTCGGTTAAGC
DNA 2: GCTTAACCGAACTCATGTCGGTAGTATATCTTTTATTTATTTTTTCTTTTTTTCCCTTTTCTTTCAAACTG
In the case of B4, the binding result in data set [5] and in data set [6] was “binds” each time.

B5: 71 bp probe, mutated outside DRE (SEQ 22) (dsDNA)
DNA 1: CAGTTTGAAAGAAAAGGGAAAAAAAGAAAAAATAAATAAAAGATATACTACCGACATGATCAACAAAAAGC
DNA 2: GCTTTTTGTTGATCATGTCGGTAGTATATCTTTTATTTATTTTTTCTTTTTTTCCCTTTTCTTTCAAACTG
On to B5, for which the binding result in data set [5] and in data set [6] was “binds” each time.

B6: 71 bp probe, DRE mutant (SEQ 21) (dsDNA)
DNA 1: CAGTTTGAAAGAAAAGGGAAAAAAAGAAAAAATAAATAAAAGATATACTACCGACAAAAGTTCCAAAAAGC
DNA 2: GCTTTTTGGAACTTTTGTCGGTAGTATATCTTTTATTTATTTTTTCTTTTTTTCCCTTTTCTTTCAAACTG
For B6, the binding result in data set [3] and in data set [4] was “no binding” in each case.

B7: DRE-containing 71 bp rd29A region in GUS reporter (3 tandem copies) (dsDNA)
DNA 1: CAGTTTGAAAGAAAAGGGAAAAAAAGAAAAAATAAATAAAAGATATACTACCGACATGAGTTCCAAAAAGC
DNA 2: GCTTTTTGGAACTCATGTCGGTAGTATATCTTTTATTTATTTTTTCTTTTTTTCCCTTTTCTTTCAAACTG
In the case of B7, the activity in data set [7] was over 30 fold.
